Reference: paper PMC10897159, “Structural insights into the activation mechanism of antimicrobial GBP1” (The EMBO Journal, 2024)

Key:
[1] = target: the molecule itself; test: cross-linking; BS3 at 20-times molar excess, 20 µM protein, with 200 µM GDP, 300 µM AlCl3, 10 mM NaF (GDP•AlFx); 50 mM HEPES, 150 mM NaCl, 5 mM MgCl2; SDS-PAGE
[2] = target: the molecule itself; test: specific GTPase activity against protein concentration (HPLC), quadratic fit; apparent Kd of dimer formation; non-farnesylated GBP1, 1 mM GTP, 37 °C, 50 mM Tris-HCl pH 7.9, 150 mM NaCl, 5 mM MgCl2; dimer to monomers
[3] = target: the molecule itself; test: SEC; analytical SEC (Superdex 200 5/150), 20 µM protein with 200 µM GDP, 300 µM AlCl3, 10 mM NaF (GDP•AlFx); 50 mM Tris-HCl pH 7.9, 150 mM NaCl, 5 mM MgCl2

Protein | binding result [1] | stoichiometry N [3] | other results
GBP1 D199A, non-farnesylated (natural protein, human, UniProt P32455 1-592, looked up, GBP1, human, full-length construct with D199A in helix α4; also called pivot point mutant; source: E. coli, pQE-80L, purified (Ni Sepharose HP, Superdex 200)) MASEIHMTGPMCLIENTNGRLMANPEALKILSAITQPMVVVAIVGLYRTGKSYLMNKLAGKKKGFSLGSTVQSHTKGIWMWCVPHPKKPGHILVLLDTEGLGDVEKGDNQNDSWIFALAVLLSSTFVYNSIGTINQQAMDQLYYVTELTHRIRSKSSPDENENEVEDSADFVSFFPDFVWTLRDFSLDLEADGQPLTPAEYLTYSLKLKKGTSQKDETFNLPRLCIRKFFPKKKCFVFDRPVHRRKLAQLEKLQDEELDPEFVQQVADFCSYIFSNSKTKTLSGGIQVNGPRLESLVLTYVNAISSGDLPCMENAVLALAQIENSAAVQKAIAHYEQQMGQKVQLPTETLQELLDLHRDSEREAIEVFIRSSFKDVDHLFQKELAAQLEKKRDDFCKQNQEASSDRCSALLQVIFSPLEEEVKAGIYSKPGGYRLFVQKLQDLKKKYYEEPRKGIQAEEILQTYLKSKESMTDAILQTDQTLTEKEKEIEVERVKAESAQASAKMLQEMQRKNEQMMEQKERSYQEHLKQLTEKMENDRVQLLKEQERTLALKLQEQEQLLKEGFQKESRIMKNEIQDLQTKMRRRKACTIS | binds |  | 
GBP1 D199K, non-farnesylated (natural protein, human, UniProt P32455 1-592, looked up, GBP1, human, full-length construct with D199K in helix α4; also called pivot point mutant; source: E. coli, pQE-80L, purified (Ni Sepharose HP, Superdex 200)) MASEIHMTGPMCLIENTNGRLMANPEALKILSAITQPMVVVAIVGLYRTGKSYLMNKLAGKKKGFSLGSTVQSHTKGIWMWCVPHPKKPGHILVLLDTEGLGDVEKGDNQNDSWIFALAVLLSSTFVYNSIGTINQQAMDQLYYVTELTHRIRSKSSPDENENEVEDSADFVSFFPDFVWTLRDFSLDLEADGQPLTPKEYLTYSLKLKKGTSQKDETFNLPRLCIRKFFPKKKCFVFDRPVHRRKLAQLEKLQDEELDPEFVQQVADFCSYIFSNSKTKTLSGGIQVNGPRLESLVLTYVNAISSGDLPCMENAVLALAQIENSAAVQKAIAHYEQQMGQKVQLPTETLQELLDLHRDSEREAIEVFIRSSFKDVDHLFQKELAAQLEKKRDDFCKQNQEASSDRCSALLQVIFSPLEEEVKAGIYSKPGGYRLFVQKLQDLKKKYYEEPRKGIQAEEILQTYLKSKESMTDAILQTDQTLTEKEKEIEVERVKAESAQASAKMLQEMQRKNEQMMEQKERSYQEHLKQLTEKMENDRVQLLKEQERTLALKLQEQEQLLKEGFQKESRIMKNEIQDLQTKMRRRKACTIS | binds |  | 
GBP1 Δ207-216, non-farnesylated (natural protein, human, UniProt P32455 1-592, looked up, GBP1, human, full-length construct; also called helix α4’ variant; source: E. coli, pQE-80L, purified (Ni Sepharose HP, Superdex 200)) MASEIHMTGPMCLIENTNGRLMANPEALKILSAITQPMVVVAIVGLYRTGKSYLMNKLAGKKKGFSLGSTVQSHTKGIWMWCVPHPKKPGHILVLLDTEGLGDVEKGDNQNDSWIFALAVLLSSTFVYNSIGTINQQAMDQLYYVTELTHRIRSKSSPDENENEVEDSADFVSFFPDFVWTLRDFSLDLEADGQPLTPDEYLTYSLGGGSETFNLPRLCIRKFFPKKKCFVFDRPVHRRKLAQLEKLQDEELDPEFVQQVADFCSYIFSNSKTKTLSGGIQVNGPRLESLVLTYVNAISSGDLPCMENAVLALAQIENSAAVQKAIAHYEQQMGQKVQLPTETLQELLDLHRDSEREAIEVFIRSSFKDVDHLFQKELAAQLEKKRDDFCKQNQEASSDRCSALLQVIFSPLEEEVKAGIYSKPGGYRLFVQKLQDLKKKYYEEPRKGIQAEEILQTYLKSKESMTDAILQTDQTLTEKEKEIEVERVKAESAQASAKMLQEMQRKNEQMMEQKERSYQEHLKQLTEKMENDRVQLLKEQERTLALKLQEQEQLLKEGFQKESRIMKNEIQDLQTKMRRRKACTIS |  |  | fold lower dimerization affinity than wild-type GBP1 [2]: 1.8 fold; stoichiometry N [1]: 2
GBP1 Δ207-216, farnesylated (natural protein, human, UniProt P32455 1-592, looked up, farnesyl moiety at the C-terminal CaaX box motif, GBP1, human, full-length construct; also called helix α4’ variant) MASEIHMTGPMCLIENTNGRLMANPEALKILSAITQPMVVVAIVGLYRTGKSYLMNKLAGKKKGFSLGSTVQSHTKGIWMWCVPHPKKPGHILVLLDTEGLGDVEKGDNQNDSWIFALAVLLSSTFVYNSIGTINQQAMDQLYYVTELTHRIRSKSSPDENENEVEDSADFVSFFPDFVWTLRDFSLDLEADGQPLTPDEYLTYSLGGGSETFNLPRLCIRKFFPKKKCFVFDRPVHRRKLAQLEKLQDEELDPEFVQQVADFCSYIFSNSKTKTLSGGIQVNGPRLESLVLTYVNAISSGDLPCMENAVLALAQIENSAAVQKAIAHYEQQMGQKVQLPTETLQELLDLHRDSEREAIEVFIRSSFKDVDHLFQKELAAQLEKKRDDFCKQNQEASSDRCSALLQVIFSPLEEEVKAGIYSKPGGYRLFVQKLQDLKKKYYEEPRKGIQAEEILQTYLKSKESMTDAILQTDQTLTEKEKEIEVERVKAESAQASAKMLQEMQRKNEQMMEQKERSYQEHLKQLTEKMENDRVQLLKEQERTLALKLQEQEQLLKEGFQKESRIMKNEIQDLQTKMRRRKACTIS | binds |  | 
isolated LG domain of GBP1 Δ207-223 (domain or fragment, human, UniProt P32455 1-317, looked up, LG domain of GBP1, human; stop codon in place of A318; also called α4’ variant LG domain construct; source: E. coli, pQE-80L, purified (Ni Sepharose HP, Superdex 200)) MASEIHMTGPMCLIENTNGRLMANPEALKILSAITQPMVVVAIVGLYRTGKSYLMNKLAGKKKGFSLGSTVQSHTKGIWMWCVPHPKKPGHILVLLDTEGLGDVEKGDNQNDSWIFALAVLLSSTFVYNSIGTINQQAMDQLYYVTELTHRIRSKSSPDENENEVEDSADFVSFFPDFVWTLRDFSLDLEADGQPLTPDEYLTYSLGGGSLCIRKFFPKKKCFVFDRPVHRRKLAQLEKLQDEELDPEFVQQVADFCSYIFSNSKTKTLSGGIQVNGPRLESLVLTYVNAISSGDLPCMENAVL |  | 2 | 
GBP1 Δ207-213, farnesylated (natural protein, human, UniProt P32455 1-592, looked up, farnesyl moiety at the C-terminal CaaX box motif, GBP1, human, full-length construct; also called helix α4’ variant) MASEIHMTGPMCLIENTNGRLMANPEALKILSAITQPMVVVAIVGLYRTGKSYLMNKLAGKKKGFSLGSTVQSHTKGIWMWCVPHPKKPGHILVLLDTEGLGDVEKGDNQNDSWIFALAVLLSSTFVYNSIGTINQQAMDQLYYVTELTHRIRSKSSPDENENEVEDSADFVSFFPDFVWTLRDFSLDLEADGQPLTPDEYLTYSLGGGSGGGSQKDETFNLPRLCIRKFFPKKKCFVFDRPVHRRKLAQLEKLQDEELDPEFVQQVADFCSYIFSNSKTKTLSGGIQVNGPRLESLVLTYVNAISSGDLPCMENAVLALAQIENSAAVQKAIAHYEQQMGQKVQLPTETLQELLDLHRDSEREAIEVFIRSSFKDVDHLFQKELAAQLEKKRDDFCKQNQEASSDRCSALLQVIFSPLEEEVKAGIYSKPGGYRLFVQKLQDLKKKYYEEPRKGIQAEEILQTYLKSKESMTDAILQTDQTLTEKEKEIEVERVKAESAQASAKMLQEMQRKNEQMMEQKERSYQEHLKQLTEKMENDRVQLLKEQERTLALKLQEQEQLLKEGFQKESRIMKNEIQDLQTKMRRRKACTIS | binds |  | 
isolated LG domain of GBP1 Δ207-213 (domain or fragment, human, UniProt P32455 1-317, looked up, LG domain of GBP1, human; stop codon in place of A318; also called α4’ variant LG domain construct; source: E. coli, pQE-80L, purified (Ni Sepharose HP, Superdex 200)) MASEIHMTGPMCLIENTNGRLMANPEALKILSAITQPMVVVAIVGLYRTGKSYLMNKLAGKKKGFSLGSTVQSHTKGIWMWCVPHPKKPGHILVLLDTEGLGDVEKGDNQNDSWIFALAVLLSSTFVYNSIGTINQQAMDQLYYVTELTHRIRSKSSPDENENEVEDSADFVSFFPDFVWTLRDFSLDLEADGQPLTPDEYLTYSLGGGSGGGSQKDETFNLPRLCIRKFFPKKKCFVFDRPVHRRKLAQLEKLQDEELDPEFVQQVADFCSYIFSNSKTKTLSGGIQVNGPRLESLVLTYVNAISSGDLPCMENAVL |  | 2 | 
isolated LG domain of GBP1 Δ207-216 (domain or fragment, human, UniProt P32455 1-317, looked up, LG domain of GBP1, human; stop codon in place of A318; also called α4’ variant LG domain construct; source: E. coli, pQE-80L, purified (Ni Sepharose HP, Superdex 200)) MASEIHMTGPMCLIENTNGRLMANPEALKILSAITQPMVVVAIVGLYRTGKSYLMNKLAGKKKGFSLGSTVQSHTKGIWMWCVPHPKKPGHILVLLDTEGLGDVEKGDNQNDSWIFALAVLLSSTFVYNSIGTINQQAMDQLYYVTELTHRIRSKSSPDENENEVEDSADFVSFFPDFVWTLRDFSLDLEADGQPLTPDEYLTYSLGGGSETFNLPRLCIRKFFPKKKCFVFDRPVHRRKLAQLEKLQDEELDPEFVQQVADFCSYIFSNSKTKTLSGGIQVNGPRLESLVLTYVNAISSGDLPCMENAVL |  | 2 | 
